Molecular target: dCas9-24XGP41 (Streptococcus pyogenes serotype M1) (UniProt Q99ZW2)
Assay: cell-based or functional assay

NbGP41-sfGFP-VP64-GB1 (from UniProt P06654 228-282) (VHH)
expression of CLV3 in homozygous Setaria MoonTag lines against wild-type ME34 (RT-qPCR): 100 fold

Reference: patent publication US20250002926A1
